Article PMC6395885

Tests used:
[1] = molecular target: phosphorylated cAMP response element-binding protein (CREB) (human (endogenous in HPAEC)); assay: co-IP
[2] = molecular target: protein kinase A (PKA) regulatory subunit RI (human (endogenous in HPAEC)) (UniProt P10644); assay: non-reducing SDS-PAGE with Western blot

phosphorylated cAMP response element-binding protein (CREB) (human (endogenous in HPAEC)), sequence (P16220 whole entry): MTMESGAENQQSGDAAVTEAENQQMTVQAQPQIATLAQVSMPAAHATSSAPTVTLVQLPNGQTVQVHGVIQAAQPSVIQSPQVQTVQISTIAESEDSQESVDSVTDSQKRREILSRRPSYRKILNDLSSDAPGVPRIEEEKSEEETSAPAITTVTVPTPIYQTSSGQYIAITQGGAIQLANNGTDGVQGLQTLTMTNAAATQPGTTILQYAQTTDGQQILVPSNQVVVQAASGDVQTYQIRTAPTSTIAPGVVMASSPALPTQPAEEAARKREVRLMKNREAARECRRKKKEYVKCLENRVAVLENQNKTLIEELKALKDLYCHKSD

fold change of co-precipitated Ref-1, hypoxia against normoxia [1] | fold change of the dimer band, 100 µM H2O2 against 0 µM H2O2 [2] | Substance
1.81 fold |  | redox factor 1 (Ref-1) (from UniProt P27695 1-318) (natural protein)
 | 3.3 fold | protein kinase A (PKA) regulatory subunit RI (from UniProt P10644 1-381) (natural protein)
